Experimental data from US9289468B2, “Fusion protein comprising circularly permuted form of trail/Apo2L, coding gene and use thereof” (Beijing Sunbio Biotech Co. Ltd., priority 2011, dated 2016).
Numbering of substitutions follows the chain as printed.

Tests used:
[1] = system: human multiple myeloma cell line U266; assay: Combination with melphalan, cell survival (ATPlite); assay type: cell-based; conditions: melphalan 12.5˜50 μg/ml, 48 h, U266B1
Description: FIG. 9. […] U266 cells are insensitive to CPT. At the concentration of 1 μg/ml, NCPT-1.M1 alone has a mild killing effect on U266 (<20%), but with the presence of melphalan (12.5˜50 μg/ml), both of them can cause enhanced killing effect. The cell viability was assayed with ATPlite luminescent system (PerkinElmer), the data as shown in this figure are all represented as the mean±standard deviation, n=4, #P<0.05, ##P<0.01 vs. melphalan group; *P<0.05 vs. NCPT-1.M1 group.

[2] = system: NCI-H460 cells; assay: Assay of killing activity on lung cancer cell line (crystal violet, IC50); assay type: cell-based, human; conditions: for Ratio of IC50 of mutants to IC50 of CPT (H460 cells): 20-24 hours, crystal violet; for killing activity compared to that of CPT: based on IC50
Description: The NCI-H460 cells (ATCC) were cultured in flasks until logarithmic growth phase, digested with 0.25% trypsin (Amresco), collected by centrifugation (1000 rpm, 5 min), resuspended in RPMI1640 medium (Invitrogen) containing 3% fetal bovine serum (FBS), counted and adjusted to 1.5×10^5/ml cell suspension, added into 96-well culture plates (Nunc) at 100 μl/well, and incubated at 37° C. in 5% CO2 incubator overnight. The sample to be tested was diluted to a certain concentration with 1640 medium containing 3% FBS, and further diluted at 4-fold dilutions (8 dilutions). The supernatant in the culture plate was discarded, and serial dilutions of the sample to be tested was added into the plate at 100 μl/well with a negative control and blank control set aside, incubated at 37° C. under 5% CO2 for 20-24 hours. Following examination under microscope, the supernatant was discarded, each well was added 50 μl 0.05% crystal violet solution (50 mg crystal violet was dissolved in 20 ml anhydrous ethanol, and water was added to the volume of 100 ml, then stored at room temperature) and stained for 3-5 minutes. The crystal violet was carefully washed with flowing water, the remaining water was removed by spin-drying, a destaining solution (50 ml distilled water, 50 ml anhydrous ethanol, and 0.1 ml glacial acetic acid were thoroughly mixed and stored at room temperature) was added at 100 μl/well, then the reading at OD570 was measured on a microplate reader (Bio-Rad 680) (reference wavelength of 630 nm). The inhibitory concentration 50 (IC50) of each sample was calculated by a four-parameter Logistic fitting using Sigmaplot10.0 software. The IC50 for CPT and each mutant of NCPT-1, NCPT-2, and NCPT-3 were calculated, and the activity change of each mutant was represented as a ratio of the IC50 of each mutant to that of CPT (Table 1).

[3] = system: human COLO 205 xenograft tumor; assay: Inhibitory activity on human colon cancer xenograft tumors; assay type: in vivo, Balb/c nu mice
Description: 4 to 5 weeks old Balb/c nu mice ♂ (Institute of Experimental Animals, Chinese Academy of Medical Sciences) were subcutaneously inoculated with COLO 205 human colon tumor tissue pieces. When the tumor grew to the volume of 120 mm3, the tumor-bearing mice were divided into 4 groups (n=7/group), which were intraperitoneally injected with normal saline (negative control group), NCPT-1.M1 5 mg/kg, NCPT-1.M1 15 mg/kg and wtTRAIL 15 mg/kg once a day for 10 consecutive days. […] During the experiment, the tumor length diameter (a) and wide diameter (b) were measured every two days with a vernier caliper, and tumor volume (TV) was calculated according to the following formula: TV=½×a×b^2; From the above, the relative tumor volume (RTV) was calculated according to following formula: RTV=Vt/V0. Wherein V0 is the tumor volume measured on the day of the administration, but before administration (i.e., d0), and Vt is the tumor volume measured every time. The relative tumor proliferation rate T/C (%) is used as an evaluation index. Evaluation criteria: T/C (%)>40% means no effect; T/C (%)≦40% and the statistical significance of P<0.05 means being effective.
T/C %=RTVT/RTVC*100%. (RTVT: RTV of the treatment group; […]: RTV of the negative control group).

[4] = 15 mg/kg i.p. once a day for 10 days

N[C@@H](Cc1ccc(N(CCCl)CCCl)cc1)C(=O)O [melphalan, reference compound]
cell survival rate, melphalan alone [1]: 11.9˜100.9%

B1: NCPT-1.M8: MG+129-134+NCPT-1, SEQ ID NO: 12 (protein)
chain: MGTRGRSNTLSSPNSKNEKALGRKINSWESSRSGHSFLSNLHLRNGELVIHEKGFYYIYSQTYFRFQEEIKENTKNDKQMVQYIYKYTSYPDPILLMKSARNSCWSKDAEYGLYSIYQGGIFELKENDRIFVSVTNEHLIDMDHEASFFGAFLVGGGGGGRVAAHITGTRGRSNT
modifications: NCPT-1.M8 polypeptide sequence
Ratio of IC50 of mutants to IC50 of CPT (H460 cells) [2]: 1.5 | killing activity compared to that of CPT [2]: significantly decreased compared to that of CPT

B2: NCPT-1.M9: MG+Asn6+NCPT-1, SEQ ID NO: 13 (protein)
chain: B1 chain with T3N, R4N, G5N, R6N, S7N
modifications: NCPT-1.M9 polypeptide sequence
Ratio of IC50 of mutants to IC50 of CPT (H460 cells) [2]: 3.0 | killing activity compared to that of CPT [2]: significantly decreased compared to that of CPT

B3: NCPT-1.M10: MG+NCPT-1+aa136-141, SEQ ID NO: 14 (protein)
chain: MGTLSSPNSKNEKALGRKINSWESSRSGHSFLSNLHLRNGELVIHEKGFYYIYSQTYFRFQEEIKENTKNDKQMVQYIYKYTSYPDPILLMKSARNSCWSKDAEYGLYSIYQGGIFELKENDRIFVSVTNEHLIDMDHEASFFGAFLVGGGGGGRVAAHITGTRGRSNTLSSPNS
modifications: NCPT-1.M10 polypeptide sequence
Ratio of IC50 of mutants to IC50 of CPT (H460 cells) [2]: 1.2 | killing activity compared to that of CPT [2]: slightly decreased compared to that of CPT

B4: NCPT-1.M2: MG+NCPT-1+His6, SEQ ID NO: 6 (protein)
chain: B3 chain with L170H, S171H, S172H, P173H, N174H, S175H
modifications: NCPT-1.M2 polypeptide sequence
Ratio of IC50 of mutants to IC50 of CPT (H460 cells) [2]: 0.1 | killing activity compared to that of CPT [2]: significantly higher than that of CPT

B5: NCPT-1.M3: MG+His3+NCPT-1, SEQ ID NO: 7 (protein)
chain: MGHHHTLSSPNSKNEKALGRKINSWESSRSGHSFLSNLHLRNGELVIHEKGFYYIYSQTYFRFQEEIKENTKNDKQMVQYIYKYTSYPDPILLMKSARNSCWSKDAEYGLYSIYQGGIFELKENDRIFVSVTNEHLIDMDHEASFFGAFLVGGGGGGRVAAHITGTRGRSNT
modifications: NCPT-1.M3 polypeptide sequence
Ratio of IC50 of mutants to IC50 of CPT (H460 cells) [2]: 0.4 | killing activity compared to that of CPT [2]: significantly higher than that of CPT

B6: NCPT-1.M4: His6+NCPT-1, SEQ ID NO: 8 (protein)
chain: HHHHHHTLSSPNSKNEKALGRKINSWESSRSGHSFLSNLHLRNGELVIHEKGFYYIYSQTYFRFQEEIKENTKNDKQMVQYIYKYTSYPDPILLMKSARNSCWSKDAEYGLYSIYQGGIFELKENDRIFVSVTNEHLIDMDHEASFFGAFLVGGGGGGRVAAHITGTRGRSNT
modifications: NCPT-1.M4 polypeptide sequence
Ratio of IC50 of mutants to IC50 of CPT (H460 cells) [2]: 0.12 | killing activity compared to that of CPT [2]: significantly higher than that of CPT

B7: NCPT-1.M5: MG+His6+NCPT-1 with linker GSGGG, SEQ ID NO: 9 (protein)
chain: B1 chain with T3H, R4H, G5H, R6H, S7H, N8H, G157S
modifications: NCPT-1.M5 polypeptide sequence
Ratio of IC50 of mutants to IC50 of CPT (H460 cells) [2]: 0.15 | killing activity compared to that of CPT [2]: significantly higher than that of CPT

B8: NCPT-1.M6: MG+His6+NCPT-1 with linker GGSGGGG, SEQ ID NO: 10 (protein)
chain: MGHHHHHHTLSSPNSKNEKALGRKINSWESSRSGHSFLSNLHLRNGELVIHEKGFYYIYSQTYFRFQEEIKENTKNDKQMVQYIYKYTSYPDPILLMKSARNSCWSKDAEYGLYSIYQGGIFELKENDRIFVSVTNEHLIDMDHEASFFGAFLVGGGSGGGGRVAAHITGTRGRSNT
modifications: NCPT-1.M6 polypeptide sequence
Ratio of IC50 of mutants to IC50 of CPT (H460 cells) [2]: 0.15 | killing activity compared to that of CPT [2]: significantly higher than that of CPT

B9: NCPT-1.M7: MG+His9+NCPT-1, SEQ ID NO: 11 (protein)
chain: MGHHHHHHHHHTLSSPNSKNEKALGRKINSWESSRSGHSFLSNLHLRNGELVIHEKGFYYIYSQTYFRFQEEIKENTKNDKQMVQYIYKYTSYPDPILLMKSARNSCWSKDAEYGLYSIYQGGIFELKENDRIFVSVTNEHLIDMDHEASFFGAFLVGGGGGGRVAAHITGTRGRSNT
modifications: NCPT-1.M7 polypeptide sequence
Ratio of IC50 of mutants to IC50 of CPT (H460 cells) [2]: 0.3 | killing activity compared to that of CPT [2]: significantly higher than that of CPT

B10: NCPT-2.M11: MG+His6+NCPT-2, SEQ ID NO: 15 (protein)
chain: MGHHHHHHTLSSPNSKNEKALGRKINSWESSRSGHSFLSNLHLRNGELVIHEKGFYYIYSQTYFRFQEEIKENTKNDKQMVQYIYKYTSYPDPILLMKSARNSCWSKDAEYGLYSIYQGGIFELKENDRIFVSVTNEHLIDMDHEASFFGAFLVGGGGGGTSEETISTVQEKQQNISPLVRERGPQRVAAHITGTRGRSNT
modifications: NCPT-2.M11 polypeptide sequence
Ratio of IC50 of mutants to IC50 of CPT (H460 cells) [2]: 0.47 | killing activity compared to that of CPT [2]: significantly higher than that of CPT

B11: NCPT-3.M12: MG+His6+NCPT-3, SEQ ID NO: 16 (protein)
chain: MGHHHHHHTLSSPNSKNEKALGRKINSWESSRSGHSFLSNLHLRNGELVIHEKGFYYIYSQTYFRFQEEIKENTKNDKQMVQYIYKYTSYPDPILLMKSARNSCWSKDAEYGLYSIYQGGIFELKENDRIFVSVTNEHLIDMDHEASFFGAFLVGGGGGGVRERGPQRVAAHITGTRGRSNT
modifications: NCPT-3.M12 polypeptide sequence
Ratio of IC50 of mutants to IC50 of CPT (H460 cells) [2]: 0.38 | killing activity compared to that of CPT [2]: significantly higher than that of CPT

B12: wtTRAIL: wild-type TRAIL (protein, UniProt P50591 1-281, looked up)
Tumor necrosis factor ligand …: MAMMEVQGGPSLGQTCVLIVIFTVLLQSLCVAVTYVYFTNELKQMQDKYSKSGIACFLKEDDSYWDPNDEESMNSPCWQVKWQLRQLVRKMILRTSEETISTVQEKQQNISPLVRERGPQRVAAHITGTRGRSNTLSSPNSKNEKALGRKINSWESSRSGHSFLSNLHLRNGELVIHEKGFYYIYSQTYFRFQEEIKENTKNDKQMVQYIYKYTSYPDPILLMKSARNSCWSKDAEYGLYSIYQGGIFELKENDRIFVSVTNEHLIDMDHEASFFGAFLVG
relative tumor volume RTV [3, 4]: 1.58 | tumor proliferation rate T/C(%) [3, 4]: 33.98% | Tumor volume TV beginning ([3]; 15 mg/kg i.p. once a day for 10 days, beginning): 127 ± 38.3 mm^3 | Tumor volume TV ending ([3]; 15 mg/kg i.p. once a day for 10 days, ending): 212 mm^3 | efficacy compared with NCPT-1.M1 ([3]; 15 mg/kg, COLO 205 xenograft, P<0.05): significantly weaker than that of NCPT-1.M1 with the same dosage | evaluation of efficacy (T/C ≦40% and P<0.05 means being effective) ([3]; both dosage groups of NCPT-1.M1 (5, 15 mg/kg), wtTRAIL 15 mg/kg): effective
